A short description of the data set: self-splicing fitness, log relative to wild type (ln ratio); higher = more splicing; Tetrahymena group I intron in knt gene, E. coli kanamycin selection, DiMSum; sequences stand for … in CUCUCU…GGAGGGAAAAGUUAUCAGGCAUGCACCUGGUAGCUAGUCUUUAAACCAAUAGAUUGCAUCGGUUUAAAAGGCAAGACCGUCAAAUUGCGGGAAAGGGGUCAACAGCCGUUCAGUACCAAGUCUCAGGGGAAACUUUGAGAUGGCCUUGCAAAGGGUAUGGUAAUAAGCUGACGGACAUGGUCCUAACCACGCAGCCAAGUCCUAAGUCAACAGAUCUUCUGUUGAUAUGGAUGCAGUUCACAGACUAAAUGUCGGUCGGGGAAGAUGUAUUCUUCUCAUAAGAUAUAGUCGGACCUCUCCUUAAUGGGAGCUAGCGGAUGAAGUGAUGCAACACUGGAGCCGCUGGGAACUAAUUUGUAUGCGAAAGUAUAUUGAUUAGUUUUGGAGUACUCGUGGUCG
The essentials:
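Colonies from six replicate transformations of E. coli BL21(DE3) were pooled and amplicon-sequenced on an Illumina HiSeq 2500. The library placed an intron with all eight P1ex-region nucleotides randomised inside the knt kanamycin-resistance gene on pET-22b(+), and cells grew overnight at 37°C or 30°C on LB agar with or without 25 μg/mL kanamycin (plus 100 μg/mL carbenicillin, 50 μM IPTG, 0.2% rhamnose). Fitness is the DiMSum error-weighted combination of wild-type-normalised replicate fold changes, kanamycin versus none.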

± gives the uncertainty stated by the source.

As for GAAUAGCAAUAUUACGUGUG, the “self-splicing fitness (ln)” value was -2.23 ± 0.07 (30 °C) and -1.52 ± 0.073 (37 °C). For the sequence UGGCAGCAAUAUUACGUCAA, the “self-splicing fitness (ln)” value (30 °C) is -1.16 ± 0.099 and the “self-splicing fitness (ln)” value (37 °C) is -0.518 ± 0.09. With UGGAAGCAAUAUUACGAUGC, the “self-splicing fitness (ln)” value is -1.67 ± 0.25 (30 °C) and -1.13 ± 0.31 (37 °C). For ACGUAGCAAUAUUACGUAGC, the “self-splicing fitness (ln)” value by setting is: (30 °C) -3.34 ± 0.27; (37 °C) -2.62 ± 0.35. Consider UAGAAGCAAUAUUACGACUG, for which the “self-splicing fitness (ln)” value reads like this: (30 °C) -0.418 ± 0.083; (37 °C) -0.0265 ± 0.1. AGAAAGCAAUAUUACGUCGU: the “self-splicing fitness (ln)” value (30 °C) was -1.9 ± 0.059 and the “self-splicing fitness (ln)” value (37 °C) was -0.452 ± 0.081. In the same order, the values of GGCGAGCAAUAUUACGGUCG are -1.13 ± 0.13 and -0.98 ± 0.16. The like results for AUGCAGCAAUAUUACGCACG were, in that order, -1.46 ± 0.091 and -0.13 ± 0.1. Consider CUCCAGCAAUAUUACGCACA, for which the “self-splicing fitness (ln)” value runs as follows: (30 °C) -1.38 ± 0.15; (37 °C) -2.29 ± 0.27. AUACAGCAAUAUUACGUCUU: the “self-splicing fitness (ln)” value was -0.218 ± 0.059 (30 °C) and 0.336 ± 0.074 (37 °C). Turning to GUAUAGCAAUAUUACGAGGG, the “self-splicing fitness (ln)” value was -3.15 ± 0.26 (30 °C) and -0.987 ± 0.23 (37 °C). The like results for AAGCAGCAAUAUUACGGCAC were, in that order, -0.574 ± 0.072 and -0.149 ± 0.098. In the same order, the values of ACGAAGCAAUAUUACGGAAC are -3.19 ± 0.26 and -1.95 ± 0.25.

On to GAGCAGCAAUAUUACGUAAC, for which the “self-splicing fitness (ln)” value reads like this: (30 °C) -1.36 ± 0.11; (37 °C) -1.13 ± 0.18. Turning to GGCCAGCAAUAUUACGCACG, the “self-splicing fitness (ln)” value runs as follows: (30 °C) -1.18 ± 0.07; (37 °C) -0.36 ± 0.082. The like results for GCUGAGCAAUAUUACGUGUU were, in that order, -3.4 ± 0.2 and -2.37 ± 0.21.

For GAGAAGCAAUAUUACGUACU, the “self-splicing fitness (ln)” value runs as follows: (30 °C) 0.0719 ± 0.08; (37 °C) 0.0321 ± 0.11. Regarding GGCUAGCAAUAUUACGCCCG, the “self-splicing fitness (ln)” value reads like this: (30 °C) -4.06 ± 0.47; (37 °C) -3.68 ± 0.26.

On to ACACAGCAAUAUUACGCACC, for which the “self-splicing fitness (ln)” value runs as follows: (30 °C) -0.476 ± 0.09; (37 °C) -0.151 ± 0.11. In the same order, the values of ACGAAGCAAUAUUACGUUGG are -3.56 ± 0.16 and -2.38 ± 0.17. The like results for GACCAGCAAUAUUACGGAAG were, in that order, -1.42 ± 0.08 and -0.75 ± 0.088.

For the sequence CUGAAGCAAUAUUACGUAAC, the “self-splicing fitness (ln)” value (37 °C) is -1.22 ± 0.24. In the case of AGGUAGCAAUAUUACGGGCC, the “self-splicing fitness (ln)” value (30 °C) is -1.74 ± 0.024 and the “self-splicing fitness (ln)” value (37 °C) was -1.5 ± 0.041. In the case of UACAAGCAAUAUUACGGUGG, the “self-splicing fitness (ln)” value is, setting by setting: (30 °C) -1.65 ± 0.051; (37 °C) -1.25 ± 0.064.

As for UGCCAGCAAUAUUACGACAG, the “self-splicing fitness (ln)” value is -1.31 ± 0.1 (30 °C) and -0.406 ± 0.12 (37 °C). Take UUCCAGCAAUAUUACGAAUG: the “self-splicing fitness (ln)” value (30 °C) is -3.59 ± 0.19 and the “self-splicing fitness (ln)” value (37 °C) is -1.75 ± 0.15. In the same order, the values of CCCUAGCAAUAUUACGGUCU are -3.61 ± 0.21 and -1.72 ± 0.17. For the sequence GCUCAGCAAUAUUACGGCUU, the “self-splicing fitness (ln)” value was -0.675 ± 0.066 (30 °C) and -0.385 ± 0.071 (37 °C). Consider AUCAAGCAAUAUUACGGCGA, for which the “self-splicing fitness (ln)” value (30 °C) is -0.555 ± 0.077 and the “self-splicing fitness (ln)” value (37 °C) amounted to 0.246 ± 0.1. The like results for GGUCAGCAAUAUUACGAAUG were, in that order, -0.0371 ± 0.078 and -0.989 ± 0.1.

Regarding ACAGAGCAAUAUUACGCAAA, the “self-splicing fitness (ln)” value runs as follows: (30 °C) -2.6 ± 0.34; (37 °C) -1.42 ± 0.28.

Consider CUCCAGCAAUAUUACGCACC, for which the “self-splicing fitness (ln)” value (37 °C) was -2.4 ± 0.45.

For ACCCAGCAAUAUUACGAGAA, the “self-splicing fitness (ln)” value (30 °C) was -1.61 ± 0.23 and the “self-splicing fitness (ln)” value (37 °C) is -1.24 ± 0.21.

As for GAACAGCAAUAUUACGGGCG, the “self-splicing fitness (ln)” value (30 °C) was -1.68 ± 0.086 and the “self-splicing fitness (ln)” value (37 °C) is -0.0108 ± 0.097. Consider ACCCAGCAAUAUUACGGAAC, for which the “self-splicing fitness (ln)” value was -1.91 ± 0.058 (30 °C) and -0.721 ± 0.066 (37 °C). The like results for AUCUAGCAAUAUUACGCACA were, in that order, -0.774 ± 0.11 and 0.129 ± 0.12.

As to CGAUAGCAAUAUUACGUCCU, the “self-splicing fitness (ln)” value was -1.29 ± 0.16 (30 °C) and -0.541 ± 0.19 (37 °C). GACUAGCAAUAUUACGCAGU: the “self-splicing fitness (ln)” value was -3.21 ± 0.31 (30 °C) and -2.17 ± 0.2 (37 °C).

For the origin of these results see the supplement of paper PMC7877785.
